Assays:
PAR1 = biological target: T1, PAR1 (Homo sapiens, UniProt P25116); assay: Caspase 1 activity assay in THP1 cells after inhibition of PAR1 (WEDE15, ATAP2, SCH79797); assay type: cell-based; details: TR47 50 μM or P3R 50 μM; for effect of PAR1 blocking antibody ATAP2 on reduction of caspase 1 activity: ATAP2 10 μg/mL for 15 minutes before APC 4 μg/mL; for effect of PAR1 small molecule antagonist SCH79797 on reduction of caspase 1 activity: SCH79797 20 μM for 20 minutes before APC 4 μg/mL; for effect of PAR1 blocking antibody WEDE15 on reduction of caspase 1 activity: WEDE15 20 μg/mL for 15 minutes before APC 4 μg/mL
T1 construct: endogenous in cells; host or cells: THP1-null (wildtype) cells, PMA-differentiated
T1 sequence (P25116 22-425): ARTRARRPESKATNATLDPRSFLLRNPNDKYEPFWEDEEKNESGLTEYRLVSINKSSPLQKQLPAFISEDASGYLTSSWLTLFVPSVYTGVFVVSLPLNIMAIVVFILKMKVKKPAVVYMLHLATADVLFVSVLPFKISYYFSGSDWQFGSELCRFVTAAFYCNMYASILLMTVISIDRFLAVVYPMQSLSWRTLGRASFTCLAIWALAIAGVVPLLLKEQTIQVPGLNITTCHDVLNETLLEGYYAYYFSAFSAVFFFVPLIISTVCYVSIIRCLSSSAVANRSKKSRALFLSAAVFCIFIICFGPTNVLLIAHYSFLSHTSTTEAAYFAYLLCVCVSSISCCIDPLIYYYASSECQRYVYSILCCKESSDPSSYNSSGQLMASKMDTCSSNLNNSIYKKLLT
Procedure: THP1 or (A) NLRP3 deficient cells (THP1-defNLRP3) cells were plated at a final concentration of 1×10^6/mL in 96 well plates and incubated with PMA (0.5 μM) for 3 hours 37° C. in supplemented RPMI. Media was subsequently changed every 24 hours for 3 days. In brief, selected wells were treated with APC (4 μg/mL), TR47 (50 μM) or P3R (50 μM) for 1 hour, washed with DPBS, and incubated with LPS (1 μg/mL) for 3 hours at 37° C. in serum-free RPMI. After a DPBS wash, cells were incubated with ATP (5 mM) in the presence or absence of 10 μM YVAD (caspase 1 inhibitor) or 2.5 μM ZVAD (pan-caspase inhibitor) for 45 minutes at 37° C. In (B), after PMA differentiation, select wells were treated with APC (4 μg/mL), TR47 (50 μM) or P3R (50 μM) for 1 hour, washed with DPBS, and incubated with LPS (1 μg/mL) for 3 hours at 37° C. in serum-free RPMI. Cells were washed with DPBS before being treated with the NLRP3 inhibitor MCC950 (10 μM) or DMSO for 30 minutes. Again, cells were washed with DPBS and incubated with ATP (5 mM) in the presence or absence of 10 μM YVAD (caspase 1 inhibitor) or 2.5 μM ZVAD (pan-caspase inhibitor) for 45 minutes prior to performing the caspase 1 activity following manufacturer's directions measuring luminescence. In (C-F) prior to APC, TR47 or P3R treatment, cells were incubated with antibodies or inhibitors. In (C) cell were incubated with the blocking EPCR antibody, RCR-252 (50 μg/mL); (D) mouse monoclonal antibody to PAR3, clone 19b (clonel9b; 25 μg/mL) for 30 minutes. In (E) cells were treated with either mouse monoclonal antibodies to PAR1, WEDE15 (20 μg/mL) or ATAP2 (10 μg/mL) for 15 minutes. In (F) cells were treated with the small molecule PAR1 inhibitor, SCH79797 (SCH; 20 μM) for 20 minutes. Following antibody or small molecule treatments (C-F) selected wells were treated with APC (4 μg/mL), TR47 (50 μM) or P3R (50 μM) for 1 hour, washed with DPBS, and incubated with LPS (1 μg/mL) for 3 hours at 37° C. in serum-free RPMI. After a DPBS wash, cells were incubated with ATP (5 mM) in the presence or absence of 10 μM YVAD (caspase 1 inhibitor) or 2.5 μM ZVAD (pan-caspase inhibitor) for 45 minutes at 37° C., prior to performing the caspase 1 activity assay following manufacturer's directions measuring luminescence (relative luminescent units, RLU). (A-F) Data points represent mean±SD of at least 3 independent experiments. *P<0.05 (vs. LPS+ATP); #P<0.05 (vs. LPS+ATP & APC, TR47 or P3R); ##P<0.005 (vs. LPS+ATP & APC, TR47 or P3R); n.s. not significant.
Caspase 1 assay. THP1-null (wildtype cells) or NLRP3-deficient THP1-(defNLRP3) cells were plated at a final concentration of 1×10^6/mL in 96 well plates and incubated with PMA (0.5 μM) for 3 hours 37° C. in supplemented RPMI. Media was subsequently changed every 24 hours for 3 days. Various subsets of wells were selected and cells were treated for 60 minutes at 37° C. in serum-free RPMI with various concentrations of APC, TR47 or P3R. Following DPBS wash, cells were incubated with LPS (lipopolysaccharide) (1 μg/mL) for 3 hours at 37° C. in serum-free RPMI to prime the inflammasome. After a DPBS wash, to fully activate caspase 1 activity, cells were incubated with ATP (5 mM), in the presence or absence of 10 μM YVAD (caspase 1 inhibitor), and 2.5 μM ZVAD (pan-caspase inhibitor) for 45 minutes at 37° C., prior to performing the caspase 1 activity assay following the manufacturer's (Promega) directions; caspase 1 activity was monitored as luminescence changes due to substrate hydrolysis and reported as relative luminescent units (RLU).^15 In select experiments, caspase 1 activity of experimental conditions were normalized to YVAD (caspase 1 inhibitor) conditions and expressed as normalized caspase 1 activity.

EPCR = biological target: T2, EPCR (Homo sapiens, UniProt Q9UNN8); assay: Caspase 1 activity assay in THP1 cells after blocking EPCR with antibody RCR-252; assay type: cell-based; details: RCR-252 50 μg/mL before APC 4 μg/mL, TR47 50 μM or P3R 50 μM
T2 construct: endogenous in cells; host or cells: THP1-null (wildtype) cells, PMA-differentiated
T2 sequence (Q9UNN8 18-238): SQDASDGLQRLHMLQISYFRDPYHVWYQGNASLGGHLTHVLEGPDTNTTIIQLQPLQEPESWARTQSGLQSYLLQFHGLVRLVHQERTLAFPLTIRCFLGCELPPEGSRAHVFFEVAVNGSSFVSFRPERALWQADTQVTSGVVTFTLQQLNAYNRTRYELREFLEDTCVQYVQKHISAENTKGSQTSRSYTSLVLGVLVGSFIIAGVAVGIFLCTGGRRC
Procedure: THP1 or (A) NLRP3 deficient cells (THP1-defNLRP3) cells were plated at a final concentration of 1×10^6/mL in 96 well plates and incubated with PMA (0.5 μM) for 3 hours 37° C. in supplemented RPMI. Media was subsequently changed every 24 hours for 3 days. In brief, selected wells were treated with APC (4 μg/mL), TR47 (50 μM) or P3R (50 μM) for 1 hour, washed with DPBS, and incubated with LPS (1 μg/mL) for 3 hours at 37° C. in serum-free RPMI. After a DPBS wash, cells were incubated with ATP (5 mM) in the presence or absence of 10 μM YVAD (caspase 1 inhibitor) or 2.5 μM ZVAD (pan-caspase inhibitor) for 45 minutes at 37° C. […] Again, cells were washed with DPBS and incubated with ATP (5 mM) in the presence or absence of 10 μM YVAD (caspase 1 inhibitor) or 2.5 μM ZVAD (pan-caspase inhibitor) for 45 minutes prior to performing the caspase 1 activity following manufacturer's directions measuring luminescence. […] After a DPBS wash, cells were incubated with ATP (5 mM) in the presence or absence of 10 μM YVAD (caspase 1 inhibitor) or 2.5 μM ZVAD (pan-caspase inhibitor) for 45 minutes at 37° C., prior to performing the caspase 1 activity assay following manufacturer's directions measuring luminescence (relative luminescent units, RLU). […]

| Sequence | effect of PAR1 blocking antibody ATAP2 on reduction of caspase 1 activity (PAR1) | effect of PAR1 small molecule antagonist SCH79797 on reduction of caspase 1 activity (PAR1) | effect of PAR1 blocking antibody WEDE15 on reduction of caspase 1 activity (PAR1) | effect of blocking EPCR on inhibition of caspase 1 activity (EPCR) |
| --- | --- | --- | --- | --- |
| GAPPNSFEEFPFSALEGWTGATIT [P3R, PAR3-derived 24-mer peptide] | None of the PAR1-targeted inhibitors statistically significantly reduced the anti-inflammatory activity | None of the PAR1-targeted inhibitors statistically significantly reduced the anti-inflammatory activity | None of the PAR1-targeted inhibitors statistically significantly reduced the anti-inflammatory activity | though trending, did not reach significance |
| NPNDKYEPFWEDEEKNESGL [TR47, PAR1-derived 20 amino acid peptide] | not by ATAP2 | inhibited by SCH79797 and WEDE15 | inhibited by SCH79797 and WEDE15 | significant loss in their inhibition of caspase 1 activity |

Reference: patent US20220313780A1, “METHODS AND COMPOSITIONS FOR TREATING INFLAMMATORY CONDITIONS” (THE SCRIPPS RESEARCH INSTITUTE, priority 2019, published 2022)
